Each block holds one substance with its values, some of them ahead of it.
Columns and labels:
[1] = molecular target: TREM2 (19–134) L75D, biotinylated (human) (UniProt Q9NZC2); test: BLI; biotinylated TREM2 WT or variant immobilised on SA biosensors; C1q 62.5–1000 nM; PBS with 0.1% BSA and 0.005% Tween-20; 1:1 kinetic fits
[2] = molecular target: TREM2 (19–134) T85D, biotinylated (human) (UniProt Q9NZC2); test: as above
[3] = molecular target: TREM2 (19–134) F74D, biotinylated (human) (UniProt Q9NZC2); test: as above
Sequence of TREM2 (19–134) F74D, biotinylated (human) (Q9NZC2 19-134 F74D): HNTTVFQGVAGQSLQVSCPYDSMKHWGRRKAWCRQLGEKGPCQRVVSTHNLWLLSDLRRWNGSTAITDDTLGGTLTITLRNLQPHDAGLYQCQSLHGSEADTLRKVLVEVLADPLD

[4] = molecular target: TREM2 (19–134) WT, biotinylated (human) (UniProt Q9NZC2); test: as above
Sequence of TREM2 (19–134) WT, biotinylated (human) (Q9NZC2 19-134): as the sequence (Q9NZC2 19-134 F74D) above, with D56F counted along it

[5] = molecular target: TREM2 (19–134) R76D, biotinylated (human) (UniProt Q9NZC2); test: as above
Sequence of TREM2 (19–134) R76D, biotinylated (human) (Q9NZC2 19-134 R76D): as the sequence (Q9NZC2 19-134 F74D) above, with D56F, R58D counted along it

[6] = molecular target: TREM2 (19–134) R62H, biotinylated (human) (UniProt Q9NZC2); test: as above
Sequence of TREM2 (19–134) R62H, biotinylated (human) (Q9NZC2 19-134 R62H): as the sequence (Q9NZC2 19-134 F74D) above, with R44H, D56F counted along it

[7] = molecular target: TREM2 (19–134) R47H, biotinylated (human) (UniProt Q9NZC2); test: as above
Sequence of TREM2 (19–134) R47H, biotinylated (human) (Q9NZC2 19-134 R47H): as the sequence (Q9NZC2 19-134 F74D) above, with R29H, D56F counted along it

[8] = molecular target: TREM2 (19–134) R122D/K123D, biotinylated (human) (UniProt Q9NZC2); test: as above
Sequence of TREM2 (19–134) R122D/K123D, biotinylated (human) (Q9NZC2 19-134 R122D/K123D): as the sequence (Q9NZC2 19-134 F74D) above, with D56F, R104D, K105D counted along it

[9] = molecular target: TREM2 (19–134) L71D, biotinylated (human) (UniProt Q9NZC2); test: as above
Sequence of TREM2 (19–134) L71D, biotinylated (human) (Q9NZC2 19-134 L71D): as the sequence (Q9NZC2 19-134 F74D) above, with L53D, D56F counted along it

[10] = molecular target: TREM2 (19–134) M41D, biotinylated (human) (UniProt Q9NZC2); test: as above
Sequence of TREM2 (19–134) M41D, biotinylated (human) (Q9NZC2 19-134 M41D): as the sequence (Q9NZC2 19-134 F74D) above, with M23D, D56F counted along it

[11] = molecular target: TREM2 (19–134) WT, biotinylated (human) (UniProt Q9NZC2); test: BLI; sequential competition: biotinylated TREM2 WT on SA biosensors dipped into a first ligand or no ligand, then buffer, then a second ligand; binding of the second ligand = response at end minus beginning of Association 2
C1q (Homo sapiens) = C1q (Homo sapiens) (UniProt P02745); details: cited from earlier work
Sequence of C1q (Homo sapiens) (P02745 23-245, chain 1 of 3): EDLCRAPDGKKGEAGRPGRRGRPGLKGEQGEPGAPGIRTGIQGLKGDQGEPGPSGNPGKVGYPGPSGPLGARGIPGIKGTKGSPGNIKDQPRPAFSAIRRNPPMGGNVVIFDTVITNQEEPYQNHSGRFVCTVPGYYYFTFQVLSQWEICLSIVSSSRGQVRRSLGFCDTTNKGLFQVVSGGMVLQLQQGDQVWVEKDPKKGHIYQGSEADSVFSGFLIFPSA
Sequence of C1q (Homo sapiens) (P02746 28-253, chain 2 of 3, further chain): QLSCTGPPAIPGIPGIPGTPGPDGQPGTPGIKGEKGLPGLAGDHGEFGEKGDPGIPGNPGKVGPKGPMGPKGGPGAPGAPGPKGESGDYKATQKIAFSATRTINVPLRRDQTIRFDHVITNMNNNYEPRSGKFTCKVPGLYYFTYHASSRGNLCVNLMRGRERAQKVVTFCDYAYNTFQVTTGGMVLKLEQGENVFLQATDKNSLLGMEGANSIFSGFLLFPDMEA
Sequence of C1q (Homo sapiens) (P02747 29-245, chain 3 of 3, further chain): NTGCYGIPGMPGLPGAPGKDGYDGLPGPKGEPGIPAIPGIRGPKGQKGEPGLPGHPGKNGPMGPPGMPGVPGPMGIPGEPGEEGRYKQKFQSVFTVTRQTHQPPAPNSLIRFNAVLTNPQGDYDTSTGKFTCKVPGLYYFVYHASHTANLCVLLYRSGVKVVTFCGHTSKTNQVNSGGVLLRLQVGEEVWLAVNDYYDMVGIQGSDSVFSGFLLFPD

[12] = molecular target: TREM2 (19–134) D87N, biotinylated (human) (UniProt Q9NZC2); test: BLI; biotinylated TREM2 WT or variant immobilised on streptavidin (SA) biosensors; apoE in solution (apoE4 0.012–50 µM); PBS with 0.1% BSA and 0.005% Tween-20; double-reference subtraction; steady-state analysis
Sequence of TREM2 (19–134) D87N, biotinylated (human) (Q9NZC2 19-134 D87N): as the sequence (Q9NZC2 19-134 F74D) above, with D56F, D69N counted along it

Sequence of TREM2 (19–134) T85D, biotinylated (human) (Q9NZC2 19-134 T85D): as the sequence (Q9NZC2 19-134 F74D) above, with D56F, T67D counted along it
Sequence of TREM2 (Q9NZC2 19-174): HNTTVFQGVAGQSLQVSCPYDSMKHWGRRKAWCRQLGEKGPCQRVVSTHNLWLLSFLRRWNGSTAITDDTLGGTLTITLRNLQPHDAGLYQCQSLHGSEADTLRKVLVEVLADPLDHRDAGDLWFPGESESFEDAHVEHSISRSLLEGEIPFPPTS
Sequence of TREM2 (19–134) L75D, biotinylated (human) (Q9NZC2 19-134 L75D): as the sequence (Q9NZC2 19-134 F74D) above, with D56F, L57D counted along it

Kd [1]: 110 nM
Kd [2]: 110 nM
Kd [3]: 110 nM
Kd [4]: 650 nM
Kd [5]: 13800 nM
Kd [6]: 1660 nM
Kd [7]: 180 nM
Kd [8]: 820 nM
Kd [9]: 58 nM
Kd [10]: 2540 nM
percent decrease of apoE4 (500 nM) binding to TREM2 after pre-binding 1000 nM C1q [11]: 3%
percent inhibition of oAβ42 (500 nM) binding to TREM2 after pre-binding 1000 nM C1q [11]: 22%
Substance: Complement C1q (complex)

Substance: TREM2 (from UniProt Q9NZC2)
Kd (C1q (Homo sapiens)): 7.35 nM

Kd [12]: 52 nM
Substance: apolipoprotein E2 (from UniProt P02649 19-317) (ligand)

percent reduction of oAβ42 (500 nM) binding to TREM2 after pre-binding 10 µM apoE4 [11]: 67%
Substance: apolipoprotein E4 (from UniProt P02649 19-317) (ligand)

— PMC11721465
